Three molecules from US20190225669A1 (ACCELERON PHARMA, published 2019) can be followed below.

The target of test [1] is T1, GDF8 (UniProt O14793 267-375).
T1 construct: also called myostatin
T1 sequence (looked up): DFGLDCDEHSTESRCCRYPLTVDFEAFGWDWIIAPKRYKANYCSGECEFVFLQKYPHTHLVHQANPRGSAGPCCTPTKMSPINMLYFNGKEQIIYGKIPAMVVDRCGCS
Briefly: Biacore SPR. The procedure: (§1) Ligands were injected and allowed to flow over the captured receptor protein.

The target in test [2] is T2, GDF6 (UniProt Q6KF10 336-455, limits assumed).
T2 construct: also called BMP13
T2 sequence (looked up): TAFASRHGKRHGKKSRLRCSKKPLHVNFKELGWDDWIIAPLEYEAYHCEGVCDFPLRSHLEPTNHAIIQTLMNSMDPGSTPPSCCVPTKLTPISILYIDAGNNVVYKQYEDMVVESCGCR
Briefly: Biacore SPR. The procedure:
as §1
(Surface plasmon resonance follows binding to a sensor surface in real time, without labels.)

The target in test [3] is T3, activin A (UniProt P08476 311-426).
T3 sequence (looked up): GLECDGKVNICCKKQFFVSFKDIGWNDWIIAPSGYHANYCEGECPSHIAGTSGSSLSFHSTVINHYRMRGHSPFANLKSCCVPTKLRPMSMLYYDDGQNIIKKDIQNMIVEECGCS
Nature of the test: Biacore SPR. The procedure:
as §1

Test [4] concerns the target T4, GDF3 (UniProt Q9NR23 251-364).
T4 sequence (looked up): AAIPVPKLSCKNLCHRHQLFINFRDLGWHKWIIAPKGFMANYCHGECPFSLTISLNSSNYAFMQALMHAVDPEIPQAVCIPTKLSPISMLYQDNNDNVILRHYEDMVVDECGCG
Nature of the test: Biacore SPR. The procedure: as §1

In test [5] the target is T5, activin B (UniProt P09529 293-407).
T5 sequence (looked up): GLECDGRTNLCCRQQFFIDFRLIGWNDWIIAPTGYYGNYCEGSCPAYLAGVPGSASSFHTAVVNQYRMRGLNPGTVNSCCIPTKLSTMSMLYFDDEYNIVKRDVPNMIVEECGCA
Nature of the test: Biacore SPR. The procedure: as §1

The target of test [6] is T6, BMP10 (UniProt O95393 317-424).
T6 sequence (looked up): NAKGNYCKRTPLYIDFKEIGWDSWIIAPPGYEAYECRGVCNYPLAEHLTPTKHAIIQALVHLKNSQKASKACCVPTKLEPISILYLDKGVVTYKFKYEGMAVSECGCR
Briefly: Biacore SPR. The procedure:
as §1

Test [7] addresses T7, BMP5 (UniProt P22003 317-454, limits assumed).
T7 sequence (looked up): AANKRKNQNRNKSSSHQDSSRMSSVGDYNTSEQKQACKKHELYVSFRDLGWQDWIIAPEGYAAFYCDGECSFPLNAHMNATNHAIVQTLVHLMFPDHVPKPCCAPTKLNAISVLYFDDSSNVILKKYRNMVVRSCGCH
Nature of the test: Biacore SPR. The protocol:
as §1

Test [8] has as its target T8, GDF11 (UniProt O95390 299-407).
T8 construct: also called BMP11
T8 sequence (looked up): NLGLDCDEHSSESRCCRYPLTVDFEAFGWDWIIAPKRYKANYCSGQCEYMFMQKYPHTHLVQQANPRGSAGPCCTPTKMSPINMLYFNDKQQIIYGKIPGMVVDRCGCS
Nature of the test: Biacore SPR. The procedure: as §1

Test [9] concerns the target T9, BMP15 (UniProt O95972 268-392).
T9 construct: also called GDF9b
T9 sequence (looked up): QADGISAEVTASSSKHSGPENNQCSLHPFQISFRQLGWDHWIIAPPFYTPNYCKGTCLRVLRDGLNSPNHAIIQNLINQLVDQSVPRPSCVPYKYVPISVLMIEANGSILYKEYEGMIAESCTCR
Nature of the test: Biacore SPR. The procedure: A Biacore™-based binding assay was used to compare ligand binding selectivity of the BMPRII-Fc:ALK2-Fc heterodimeric complex described above with that of BMPRII-Fc and ALK2-Fc homodimeric complexes. […] Ligands were injected and allowed to flow over the captured receptor protein.

Test [10] concerns the target T1, GDF8. Briefly: Biacore SPR. The protocol:
as §1
This is another data set of the same source.

The target of test [11] is T3, activin A. Briefly: Biacore SPR. The procedure: as §1
This is another data set of the same source.

Test [12] deals with T4, GDF3. Nature of the test: Biacore SPR. The protocol: as §1
This is another data set of the same source.

The target of test [13] is T5, activin B. Briefly: Biacore SPR. The procedure: as §1
The source holds these as a separate data set.

Test [14] deals with T6, BMP10. Nature of the test: Biacore SPR. The protocol:
as §1
The source holds these as a separate data set.

The target of test [15] is T7, BMP5. Nature of the test: Biacore SPR. The protocol: as §1
This is another data set of the same source.

Test [16] addresses T8, GDF11. Briefly: Biacore SPR. The protocol:
as §1
This is another data set of the same source.

For test [17], the target named is T10, BMP6 (UniProt P22004 382-513, limits assumed).
T10 sequence (looked up): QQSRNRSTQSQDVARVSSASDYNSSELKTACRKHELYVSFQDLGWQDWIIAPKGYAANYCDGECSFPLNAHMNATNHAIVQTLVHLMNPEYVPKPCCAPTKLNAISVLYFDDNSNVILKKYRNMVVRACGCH
Nature of the test: Biacore SPR. The protocol:
as §1

The target of test [18] is T11, BMP9 (UniProt Q9UK05 320-429).
T11 construct: also called GDF2
T11 sequence (looked up): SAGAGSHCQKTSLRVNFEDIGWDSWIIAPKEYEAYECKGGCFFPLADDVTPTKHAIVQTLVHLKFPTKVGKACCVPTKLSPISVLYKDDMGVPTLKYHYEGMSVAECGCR
Nature of the test: Biacore SPR; kinetics indeterminate (transient). The protocol: as §1

Test [19] addresses T1, GDF8. Briefly: Biacore SPR. The protocol:
as §1
The source holds these as a separate data set.

Test [20] concerns the target T3, activin A. Briefly: Biacore SPR. The procedure: as §1
The source holds these as a separate data set.

Test [21] deals with T4, GDF3. Briefly: Biacore SPR. The procedure:
as §1
The source holds these as a separate data set.

Test [22] has as its target T5, activin B. Nature of the test: Biacore SPR. The procedure: as §1
The source holds these as a separate data set.

For test [23], the target named is T6, BMP10. Nature of the test: Biacore SPR. The procedure:
as §1
The source holds these as a separate data set.

Test [24] addresses T8, GDF11. Briefly: Biacore SPR. The procedure: as §1
The source holds these as a separate data set.

Test [25] has as its target T10, BMP6. Briefly: Biacore SPR. The procedure:
as §1
This is another data set of the same source.

Where two headings read alike, the source gives them in different places. Bounds are passed on as bounds.

B1: ALK2-Fc homodimer (Fc fusion, UniProt Q04771 21-123, looked up, not shown: a dimerising Fc or GST)
chain: MEDEKPKVNPKLYMCVCEGLSCGNEDHCEGQQCFSSLSINDGFHVYQKGCFQVYEQGKMTCKTPPSPGQAVECCQGDWCNRNITAQLPTKGKSFPGTQNFHLE
notes: extracellular domain
With B1, the binding result in [1], in test [2], in [3], in test [4], in [5] and in test [6] was “no binding” throughout. Also, the binding result in test [7], in test [8] and in [9] was “no binding” in each case.

B2: ActRIIB-Fc:ALK7-Fc heterodimer (Fc fusion)
chain 1: GRGEAETRECIYYNANWELERTNQSGLERCEGEQDKRLHCYASWRNSSGTIELVKKGCWLDDFNCYDRQECVATEENPQVYFCCCEGNFCNERFTHLPEAGGPEVTYEPPPTAPTGGGTHTCPPCPAPELLGGPSVFLFPPKPKDTLMISRTPEVTCVVVDVSHEDPEVKFNWYVDGVEVHNAKTKPREEQYNSTYRVVSVLTVLHQDWLNGKEYKCKVSNKALPAPIEKTISKAKGQPREPQVYTLPPSRKEMTKNQVSLTCLVKGFYPSDIAVEWESNGQPENNYKTTPPVLKSDGSFFLYSKLTVDKSRWQQGNVFSCSVMHEALHNHYTQKSLSLSPGK
chain 2: GLKCVCLLCDSSNFTCQTEGACWASVMLTNGKEQVIKSCVSLPELNAQVFCHSSNNVTKTECCFTDFCNNITLHLPTASPNAPKLGPMETGGGTHTCPPCPAPELLGGPSVFLFPPKPKDTLMISRTPEVTCVVVDVSHEDPEVKFNWYVDGVEVHNAKTKPREEQYNSTYRVVSVLTVLHQDWLNGKEYKCKVSNKALPAPIEKTISKAKGQPREPQVYTLPPSREEMTKNQVSLTCLVKGFYPSDIAVEWESNGQPENNYDTTPPVLDSDGSFFLYSDLTVDKSRWQQGNVFSCSVMHEALHNHYTQKSLSLSPG
notes: C-terminal Lys optional; also called ActRIIB-Fc:ALK7 heterodimer
Turning to B2, the Kd – broadly, the constant that tells how readily two partners part at equilibrium – in [10] was 0.27 nM; in test [11], 0.043 nM; in test [12] it was 4.5 nM; in test [13], 0.017 nM; in [14], 0.19 nM; in test [15], 57 nM. The dissociation constant (Kd) is 0.008 nM in test [16], 5.3 nM in test [17] and over 1.4 nM in test [18]. The koff (as a rule, a measure of how fast the partners let go of each other) in test [10] is 0.001 s⁻¹; in test [11] it was 0.0019 s⁻¹; in test [12], 0.01 s⁻¹; in test [13] it was 0.0002 s⁻¹; in test [14], 0.0028 s⁻¹; in test [15] it was 0.0085 s⁻¹. In addition, the koff in test [16] came to 0.00075 s⁻¹; in [17] it was 0.0063 s⁻¹. The kon (usually the rate constant with which the complex forms) is 3.7e+06 M⁻¹ s⁻¹ in test [10]; 4.4e+07 M⁻¹ s⁻¹ in test [11]; 2.3e+06 M⁻¹ s⁻¹ in [12]; 1.2e+07 M⁻¹ s⁻¹ in test [13]; 1.5e+07 M⁻¹ s⁻¹ in test [14]; 150000 M⁻¹ s⁻¹ in [15]. The kon in test [16] was 9.5e+07 M⁻¹ s⁻¹; in test [17], 1.2e+06 M⁻¹ s⁻¹.

B3: ActRIIB-Fc:ALK5-Fc heterodimer (Fc fusion)
chain 1: B2 chain 1
chain 2: ALLPGATALQCFCHLCTKDNFTCVTDGLCFVSVTETTDKVIHNSMCIAEIDLIPRDRPFVCAPSSKTGSVTTTYCCNQDHCNKIELPTTVKSSPGLGPVETGGGTHTCPPCPAPELLGGPSVFLFPPKPKDTLMISRTPEVTCVVVDVSHEDPEVKFNWYVDGVEVHNAKTKPREEQYNSTYRVVSVLTVLHQDWLNGKEYKCKVSNKALPAPIEKTISKAKGQPREPQVYTLPPSREEMTKNQVSLTCLVKGFYPSDIAVEWESNGQPENNYDTTPPVLDSDGSFFLYSDLTVDKSRWQQGNVFSCSVMHEALHNHYTQKSLSLSPG
notes: C-terminal Lys optional; also called ActRIIB-Fc:ALK5-Fc heterodimeric complex
Regarding B3, the Kd is over 6.6 nM in test [18]; 0.49 nM in test [19]; 0.046 nM in [20]; 8.5 nM in [21]; 0.079 nM in test [22]; 0.15 nM in test [23]. For the same molecule, the Kd in test [24] was 0.2 nM; in test [25], 1.7 nM. The off-rate (koff) amounted to 0.00052 s⁻¹ in test [19]; 0.0016 s⁻¹ in [20]; 0.0097 s⁻¹ in [21]; 0.00031 s⁻¹ in test [22]; 0.0022 s⁻¹ in [23]; 0.00046 s⁻¹ in [24]. In [25], the koff was determined as 0.015 s⁻¹. Further, the kon in test [19] is 1.1e+06 M⁻¹ s⁻¹; in [20], 3.6e+07 M⁻¹ s⁻¹; in test [21] it was 1.1e+06 M⁻¹ s⁻¹; in test [22] it was 3.9e+06 M⁻¹ s⁻¹; in [23], 2.3e+07 M⁻¹ s⁻¹; in [24] it was 2.3e+06 M⁻¹ s⁻¹. The kon in test [25] was 9.3e+06 M⁻¹ s⁻¹.
